Values quoted from earlier work as cited in patent US8691960B2, “Oxidoreductases for enantioselective reactions” (Duke University, priority 2012, dated 2014).

Settings: literature (Dang et al. 2009; Gross et al. 2010)

## HsIDH1-R132C: human cytosolic NADP+-dependent isocitrate dehydrogenase (HsIDH1) R132C cancer mutant
  lowering of Vmax for neomorphic activity relative to HsIDH1-R132H: 2 fold
